Several values for one entry are separate records, joined by “and”; a condition that tells them apart may be missing. Equal entries are not always repeated.

The text below walks through data of US20200407435A1.

In the experiment the target is rhAngiopoietin-2 (R&D systems cat 623-AN/CF) (human) (UniProt O15123). Description: cell-based or functional assay.
Sequence of rhAngiopoietin-2 (R&D systems cat 623-AN/CF) (human) (O15123 19-496 limits assumed): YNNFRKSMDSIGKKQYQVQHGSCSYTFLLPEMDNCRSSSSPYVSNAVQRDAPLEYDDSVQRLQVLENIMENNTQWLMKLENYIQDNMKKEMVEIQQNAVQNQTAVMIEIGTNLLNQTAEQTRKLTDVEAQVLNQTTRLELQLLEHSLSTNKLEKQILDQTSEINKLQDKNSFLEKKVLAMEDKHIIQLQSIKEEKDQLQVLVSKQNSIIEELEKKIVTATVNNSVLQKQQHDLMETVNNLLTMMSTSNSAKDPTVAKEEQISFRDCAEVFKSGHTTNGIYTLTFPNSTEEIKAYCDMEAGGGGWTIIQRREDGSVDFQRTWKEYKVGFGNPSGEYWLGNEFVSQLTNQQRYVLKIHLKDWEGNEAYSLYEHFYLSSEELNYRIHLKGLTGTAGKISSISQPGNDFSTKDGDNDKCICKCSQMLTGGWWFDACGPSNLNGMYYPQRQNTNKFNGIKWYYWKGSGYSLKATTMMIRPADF

As for “Nesvacumab analog (Regeneron) (antibody)”, the Tie2 phosphorylation functional assay, EC50 was 4.4 nM and 2.2 nM.
